From patent US20240116985A1 (published 2024) come the findings set out here.

Starred links: 1 amine or outer side, 2 acyl side, 3 side chain; linkers in the order of their positions; H or OH if unused. Positions of bridges follow the written chain, without caps; N, C: chain ends. Non-standard residues stand in square brackets, D forms with d. Primed or numbered codes have the meaning given here. PyrS2″ = (S)-3-amino-1-((pent-4-en-1-yloxy)carbonyl)pyrrolidine-3-carboxylic acid (stapling residue), C=CCCCOC(=O)N1CC[C@@](N[*:1])(C(=O)[*:2])C1; B5(16) = 2-amino-2-(pent-4-en-1-yl)hept-6-enoic acid = 2,2-bis(4-pentenyl)glycine (stitching residue), C=CCCCC(CCCC=C)(N[*:1])C(=O)[*:2]; B5(4) = 2,2-bis(4-pentenyl)glycine = 2-amino-2-(pent-4-en-1-yl)hept-6-enoic acid (stitching residue), C=CCCCC(CCCC=C)(N[*:1])C(=O)[*:2]; TfeGA = (S)-2-amino-3-((carboxymethyl)(2,2,2-trifluoroethyl)amino)propanoic acid, O=C([C@H](CN(CC(=O)[*:3])CC(F)(F)F)N[*:1])[*:2]; B5(3) = 2,2-bis(4-pentenyl)glycine (stitching residue), C=CCCCC(CCCC=C)(N[*:1])C(=O)[*:2]; Phe(2-Cl) = N[C@@H](Cc1ccccc1Cl)C(=O)O; Bta = N[C@@H](Cc1csc2ccccc12)C(=O)O; αAllylPro = C=CC[C@@]1(C(=O)O)CCCN1; tBuAla = CC(C)(C)C[C@H](N)C(=O)O; S8 = C=CCCCCCC[C@](C)(N)C(=O)O; hSer = N[C@@H](CCO)C(=O)O

Experiment [1] deals with T1, Bcat-Halo (UniProt P35222 1-781).
T1 construct: Construct transfected into HEK293 cells for NanoBRET; not shown: HaloTag fusion partner
T1 sequence (looked up): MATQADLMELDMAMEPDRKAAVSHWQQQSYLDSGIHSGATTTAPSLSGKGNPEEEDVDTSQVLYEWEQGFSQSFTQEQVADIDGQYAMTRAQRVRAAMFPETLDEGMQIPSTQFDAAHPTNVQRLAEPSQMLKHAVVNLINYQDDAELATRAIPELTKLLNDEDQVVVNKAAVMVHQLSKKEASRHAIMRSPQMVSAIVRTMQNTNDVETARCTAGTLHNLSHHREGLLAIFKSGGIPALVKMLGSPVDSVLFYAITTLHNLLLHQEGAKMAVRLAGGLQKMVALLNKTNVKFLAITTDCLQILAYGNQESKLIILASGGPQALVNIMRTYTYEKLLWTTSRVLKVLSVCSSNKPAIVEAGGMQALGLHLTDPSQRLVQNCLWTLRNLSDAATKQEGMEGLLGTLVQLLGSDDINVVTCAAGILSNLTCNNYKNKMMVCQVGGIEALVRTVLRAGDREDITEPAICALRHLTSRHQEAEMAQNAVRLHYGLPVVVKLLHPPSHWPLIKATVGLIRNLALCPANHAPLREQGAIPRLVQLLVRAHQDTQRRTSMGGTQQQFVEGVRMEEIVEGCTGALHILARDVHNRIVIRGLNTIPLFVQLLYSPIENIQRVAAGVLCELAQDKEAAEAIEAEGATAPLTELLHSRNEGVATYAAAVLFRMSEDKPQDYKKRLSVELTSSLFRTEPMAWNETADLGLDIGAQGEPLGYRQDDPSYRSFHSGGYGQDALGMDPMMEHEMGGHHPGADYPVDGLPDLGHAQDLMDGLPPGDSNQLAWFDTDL
Nature of the experiment: NanoBRET in HEK293 cells, Bcat-Halo/TCF4-Luc (competitor TCF4-Luc); absolute IC50. In general terms: Bioluminescence resonance energy transfer reports proximity on the nanometre scale.

For experiment [2], the target named is T2, full-length beta-Catenin (Uniprot ID P35222) (Homo sapiens (Human), UniProt P35222 2-781).
T2 construct: Also used here for the endogenous beta-catenin of the DLD1 TCF reporter cells; also called bCat; B-Catenin
T2 sequence: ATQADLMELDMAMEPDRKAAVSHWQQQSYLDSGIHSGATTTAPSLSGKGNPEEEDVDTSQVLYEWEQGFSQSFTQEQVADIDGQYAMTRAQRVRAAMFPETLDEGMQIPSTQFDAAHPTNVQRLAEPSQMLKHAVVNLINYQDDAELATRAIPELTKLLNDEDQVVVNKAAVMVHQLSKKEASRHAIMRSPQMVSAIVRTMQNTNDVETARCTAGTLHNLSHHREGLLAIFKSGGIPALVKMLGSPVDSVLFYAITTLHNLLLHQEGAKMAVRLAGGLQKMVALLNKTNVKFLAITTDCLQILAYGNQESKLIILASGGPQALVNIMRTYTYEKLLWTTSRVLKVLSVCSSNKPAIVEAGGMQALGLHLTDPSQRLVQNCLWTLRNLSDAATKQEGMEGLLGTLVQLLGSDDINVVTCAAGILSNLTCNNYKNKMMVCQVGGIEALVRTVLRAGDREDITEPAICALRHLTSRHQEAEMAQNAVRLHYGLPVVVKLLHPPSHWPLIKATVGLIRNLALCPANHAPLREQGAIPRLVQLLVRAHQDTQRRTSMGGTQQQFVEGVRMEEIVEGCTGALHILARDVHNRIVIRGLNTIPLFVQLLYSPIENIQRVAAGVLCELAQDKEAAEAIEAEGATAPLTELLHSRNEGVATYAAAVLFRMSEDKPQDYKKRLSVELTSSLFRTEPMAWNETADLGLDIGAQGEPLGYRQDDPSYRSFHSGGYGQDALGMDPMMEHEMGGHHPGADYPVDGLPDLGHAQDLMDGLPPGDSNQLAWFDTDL
Nature of the experiment: fluorescence polarization competition; full-length beta-catenin, competitor 5FAM-TCF4(10-53) probe. The procedure, abridged:
(§1)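 Plate incubated 60 minutes at 20° C. protected from light before reading. Concentrations given are final.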
On the technique in general: In fluorescence polarisation assays a small probe gives low polarisation when free and higher when bound to something large.

In experiment [3] the target is T3, Bcat-Halo (UniProt P35222 1-781).
T3 construct: also called beta-catenin HaloTag fusion; not shown: HaloTag
T3 sequence (looked up): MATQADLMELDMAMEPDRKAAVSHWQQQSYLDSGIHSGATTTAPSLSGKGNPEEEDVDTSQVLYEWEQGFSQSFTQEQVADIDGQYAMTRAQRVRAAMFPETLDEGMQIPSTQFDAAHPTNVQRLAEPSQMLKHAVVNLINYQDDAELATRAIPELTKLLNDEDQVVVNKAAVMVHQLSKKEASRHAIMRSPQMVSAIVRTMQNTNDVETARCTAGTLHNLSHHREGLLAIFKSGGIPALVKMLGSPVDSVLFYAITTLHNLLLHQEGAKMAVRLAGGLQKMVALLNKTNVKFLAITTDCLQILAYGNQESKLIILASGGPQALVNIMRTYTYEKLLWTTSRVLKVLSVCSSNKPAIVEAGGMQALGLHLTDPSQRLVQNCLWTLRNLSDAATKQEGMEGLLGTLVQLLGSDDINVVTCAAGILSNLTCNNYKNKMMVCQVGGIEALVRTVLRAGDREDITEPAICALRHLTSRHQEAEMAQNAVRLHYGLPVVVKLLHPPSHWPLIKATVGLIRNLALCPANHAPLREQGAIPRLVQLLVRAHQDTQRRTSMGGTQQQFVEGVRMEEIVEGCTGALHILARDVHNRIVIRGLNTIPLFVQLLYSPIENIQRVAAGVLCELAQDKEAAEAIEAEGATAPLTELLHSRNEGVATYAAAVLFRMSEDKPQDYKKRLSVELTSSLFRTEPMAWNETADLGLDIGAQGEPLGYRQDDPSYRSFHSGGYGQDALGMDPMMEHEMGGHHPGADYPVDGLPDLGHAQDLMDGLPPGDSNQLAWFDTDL
Nature of the experiment: NanoBRET Abs IC50 in HEK293 cells; Bcat-Halo, competitor TCF4-Luc.

For experiment [4], the target named is T4, full-length beta-Catenin (Uniprot ID P35222) (Homo sapiens (Human), UniProt P35222 1-781).
T4 construct: also called bCat; B-Catenin
T4 sequence: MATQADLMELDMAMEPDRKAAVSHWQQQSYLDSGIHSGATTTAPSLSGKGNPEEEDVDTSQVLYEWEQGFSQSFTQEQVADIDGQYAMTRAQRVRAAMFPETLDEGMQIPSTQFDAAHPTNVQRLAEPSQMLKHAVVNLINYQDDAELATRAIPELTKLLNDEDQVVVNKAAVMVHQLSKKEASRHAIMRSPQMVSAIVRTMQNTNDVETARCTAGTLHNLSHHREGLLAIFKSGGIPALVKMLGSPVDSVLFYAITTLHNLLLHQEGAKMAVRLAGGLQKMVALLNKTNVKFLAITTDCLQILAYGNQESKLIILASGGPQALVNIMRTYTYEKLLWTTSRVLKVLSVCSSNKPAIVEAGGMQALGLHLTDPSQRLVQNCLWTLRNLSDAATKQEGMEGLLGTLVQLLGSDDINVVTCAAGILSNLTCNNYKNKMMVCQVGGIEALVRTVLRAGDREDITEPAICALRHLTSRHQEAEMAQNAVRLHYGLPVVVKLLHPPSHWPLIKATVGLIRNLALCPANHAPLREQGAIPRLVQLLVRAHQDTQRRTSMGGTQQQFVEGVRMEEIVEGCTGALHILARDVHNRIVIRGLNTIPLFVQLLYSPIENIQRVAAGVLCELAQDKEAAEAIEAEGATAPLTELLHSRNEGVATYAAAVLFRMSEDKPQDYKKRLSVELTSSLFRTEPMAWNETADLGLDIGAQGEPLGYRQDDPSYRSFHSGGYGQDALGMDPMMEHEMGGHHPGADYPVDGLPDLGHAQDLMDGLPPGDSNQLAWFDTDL
In words: fluorescence polarization competition; full-length beta-catenin, competitor 5FAM-TCF4(10-53) probe. The procedure, abridged:
as §1

Experiment [5] concerns the target T5, B-cat-Halo (UniProt P35222 1-781).
T5 sequence (looked up): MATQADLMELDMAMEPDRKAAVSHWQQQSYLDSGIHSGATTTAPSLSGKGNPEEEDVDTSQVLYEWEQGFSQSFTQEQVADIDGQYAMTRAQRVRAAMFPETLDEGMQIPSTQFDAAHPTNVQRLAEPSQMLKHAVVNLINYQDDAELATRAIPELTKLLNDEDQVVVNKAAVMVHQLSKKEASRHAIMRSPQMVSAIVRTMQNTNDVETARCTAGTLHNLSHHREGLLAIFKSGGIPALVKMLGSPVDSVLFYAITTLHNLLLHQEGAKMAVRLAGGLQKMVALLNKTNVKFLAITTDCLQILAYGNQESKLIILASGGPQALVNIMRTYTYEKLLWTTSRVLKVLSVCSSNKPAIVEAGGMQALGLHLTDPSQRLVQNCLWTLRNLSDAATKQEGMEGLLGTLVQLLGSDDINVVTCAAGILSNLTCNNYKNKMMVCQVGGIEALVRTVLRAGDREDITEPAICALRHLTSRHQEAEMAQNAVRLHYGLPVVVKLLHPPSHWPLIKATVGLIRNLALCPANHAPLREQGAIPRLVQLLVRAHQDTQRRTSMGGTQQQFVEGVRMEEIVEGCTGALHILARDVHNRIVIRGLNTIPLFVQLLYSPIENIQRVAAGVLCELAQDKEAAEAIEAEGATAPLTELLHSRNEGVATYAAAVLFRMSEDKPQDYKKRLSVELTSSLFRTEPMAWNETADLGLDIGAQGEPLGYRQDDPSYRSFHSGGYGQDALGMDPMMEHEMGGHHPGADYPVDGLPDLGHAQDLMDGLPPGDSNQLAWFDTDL
In words: cell-based or functional assay.

Experiment [6] deals with T6, beta-catenin in DLD1 TCF/LEF luciferase reporter cells (UniProt P35222 1-781).
T6 sequence (looked up): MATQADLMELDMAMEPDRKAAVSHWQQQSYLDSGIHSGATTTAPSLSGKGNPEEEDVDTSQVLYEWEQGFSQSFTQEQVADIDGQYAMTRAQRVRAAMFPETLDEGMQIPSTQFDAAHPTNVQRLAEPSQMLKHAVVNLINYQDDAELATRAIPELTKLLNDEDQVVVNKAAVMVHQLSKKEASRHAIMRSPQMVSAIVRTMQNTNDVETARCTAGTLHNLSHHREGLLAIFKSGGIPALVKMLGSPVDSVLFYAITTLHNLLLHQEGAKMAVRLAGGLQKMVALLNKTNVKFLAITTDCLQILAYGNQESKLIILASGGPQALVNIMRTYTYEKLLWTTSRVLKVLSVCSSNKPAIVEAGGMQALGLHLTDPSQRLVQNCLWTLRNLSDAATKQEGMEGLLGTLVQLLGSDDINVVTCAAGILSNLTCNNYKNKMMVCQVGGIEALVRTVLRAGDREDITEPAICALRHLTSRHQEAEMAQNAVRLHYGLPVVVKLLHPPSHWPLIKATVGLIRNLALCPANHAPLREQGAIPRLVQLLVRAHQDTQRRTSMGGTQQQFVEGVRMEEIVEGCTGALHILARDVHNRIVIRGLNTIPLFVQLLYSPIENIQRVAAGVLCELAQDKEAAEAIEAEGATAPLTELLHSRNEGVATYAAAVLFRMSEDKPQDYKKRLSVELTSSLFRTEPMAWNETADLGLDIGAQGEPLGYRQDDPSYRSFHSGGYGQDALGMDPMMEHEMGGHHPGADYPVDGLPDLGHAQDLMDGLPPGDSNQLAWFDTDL
In words: cell-based or functional assay.

B1: I-753 (peptide)
peptide: Ac-[αAllylPro]DL[B5(4)]DEAAFN[S8]F[Bta]N-NH2
modifications: staple 1-4, 4-11; also: olefin E/Z not assigned, later-eluting staple isomer
notes: Stapled peptide composition
The IC50 is the concentration that gives 50% inhibition. Higher therefore signals a need for much substance. The EC50 is the concentration giving half of the maximal effect. A higher EC50 goes with a less potent agent. Regarding B1, the IC50 in experiment [1] was 10 µM. This molecule returned an EC50 in experiment [2] of 0.014 µM.

B2: I-654 (peptide)
peptide: Ac-[αAllylPro]DI[B5(16)]DEQAFQ[S8]F[Bta]Q-NH2
modifications: staple 1-4, 4-11
notes: Stapled peptide
B2 had an IC50 in experiment [3] of 15 µM.

B3: I-662 (peptide)
peptide: XDIXDEASFQXFXQ
modifications: not fully specified; Ac-PL3-Asp-Ile-B5-Asp-Glu-Ala-Ser-Phe-Gln-S8-Phe-BztA-Gln-NH2; N-terminal acetyl, C-terminal amide; PL3(1), B5(4), S8(11) stapled by olefin metathesis (1-4 and 4-11); BztA at 13
notes: Stapled peptide
Take B3: the values for the half-inhibitory concentration (IC50) in experiment [4] and in experiment [3] were 0.026 µM and 16.1 µM, respectively.

B4: I-996 (peptide)
peptide: Ac-[αAllylPro]D[tBuAla][B5(3)]D[TfeGA]AAF[hSer][S8][Phe(2-Cl)][Bta]Q-NH2
modifications: staple 1-4, 4-11
Regarding B4, the “NanoBRET Abs IC50” value in experiment [5] was 11.3 µM. Also, in experiment [6], the “DLD1 4% Abs IC50” value was 3.6 µM.

B5: I-993 (peptide)
peptide: Ac-[αAllylPro]D[tBuAla][B5(3)]D[TfeGA]AAF[hSer][PyrS2″][Phe(2-Cl)][Bta][hSer]-NH2
modifications: staple 1-4, 4-11
For the molecule B5, in experiment [5], the “NanoBRET Abs IC50” value worked out at 4.9 µM. Also, the “DLD1 4% Abs IC50” value in experiment [6] is 1.8 µM.
